Data taken from patent US20250042994A1 (HAINAN SIMCERE ZAIMING PHARMACEUTICAL, published 2025).
Numbering of substitutions follows the chain as printed.

T1: human CD19 on CHO-K1-human CD19 cells (human, UniProt P15391 20-556)
T1 construct: whole, on cells; also called CHO-K1-human CD19-2C8
T1 sequence (looked up): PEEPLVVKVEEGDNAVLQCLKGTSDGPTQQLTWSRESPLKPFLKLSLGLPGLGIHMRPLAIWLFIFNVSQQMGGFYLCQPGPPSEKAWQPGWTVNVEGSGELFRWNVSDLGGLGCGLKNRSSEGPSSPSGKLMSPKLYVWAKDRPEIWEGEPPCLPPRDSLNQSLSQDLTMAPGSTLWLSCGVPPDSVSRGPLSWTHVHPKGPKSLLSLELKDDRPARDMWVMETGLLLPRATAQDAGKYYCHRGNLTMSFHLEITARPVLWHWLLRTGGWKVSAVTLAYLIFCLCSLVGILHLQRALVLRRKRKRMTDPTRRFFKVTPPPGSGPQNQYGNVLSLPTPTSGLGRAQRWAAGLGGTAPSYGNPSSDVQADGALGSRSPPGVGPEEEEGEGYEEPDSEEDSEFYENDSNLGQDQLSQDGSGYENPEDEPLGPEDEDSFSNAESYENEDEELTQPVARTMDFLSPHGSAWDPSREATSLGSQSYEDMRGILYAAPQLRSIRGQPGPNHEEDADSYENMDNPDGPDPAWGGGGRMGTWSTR

T2: cynomolgus monkey CD19 on peripheral blood B cells (cynomolgus monkey (Macaca fascicularis), UniProt A0A2K5W8L9 20-557)
T2 construct: whole, on cells; also called cynomolgus monkey B cells
T2 sequence: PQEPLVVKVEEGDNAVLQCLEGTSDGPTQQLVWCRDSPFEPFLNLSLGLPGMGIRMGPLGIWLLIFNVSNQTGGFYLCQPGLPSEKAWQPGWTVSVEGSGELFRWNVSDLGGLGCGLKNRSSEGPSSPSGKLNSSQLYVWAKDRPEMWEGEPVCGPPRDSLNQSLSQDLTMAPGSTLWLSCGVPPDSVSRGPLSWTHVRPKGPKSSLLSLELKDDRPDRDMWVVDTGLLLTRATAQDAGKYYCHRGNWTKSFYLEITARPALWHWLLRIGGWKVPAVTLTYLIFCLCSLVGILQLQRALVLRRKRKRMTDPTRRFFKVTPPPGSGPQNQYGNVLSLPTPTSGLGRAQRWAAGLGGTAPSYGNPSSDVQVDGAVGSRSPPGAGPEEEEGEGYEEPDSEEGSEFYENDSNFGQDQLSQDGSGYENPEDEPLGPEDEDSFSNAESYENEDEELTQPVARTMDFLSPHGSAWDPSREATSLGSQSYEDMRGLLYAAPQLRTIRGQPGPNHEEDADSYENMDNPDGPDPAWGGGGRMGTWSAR

T3: human CD19 on Raji cells (human, UniProt P15391 20-556)
T3 construct: whole, on cells
T3 sequence (looked up): T1 sequence (looked up)

B1: F4.4.6 (antibody, human IgG1, V domains shown)
VH: QVQLQQSGAELARPGASVKLSCKASGYTFTSYWMQWVKQRPGQGLEWIGAIYPGDGDSRYTQKFKGKATLTADKSSSTAYMQLSSLASEDSAVYYCARSTTTVLGNNFEYWGQGTTLTVSS
VL: QIVLTQSPAIMSALPGEKVTMTCSASSSVSSMHWYQQKSGTSPKRWIYDTSKLASGVPARFSGSGSGTSYSLTISSMEAEDAATYYCQQWSSNPWTFGGGTKLEIK
notes: human-murine chimeric antibody, human IgG1
B2: F3.114.12 (antibody, human IgG1, V domains shown)
VH: DVQLQESGPGLVKPSQSLSLTCSVTGYSITSGYDWNWIRQFPGNKLEWMGYISYDGKNNYNPSLRNRISITRDTSKNQFFLKLNSVTTEDTATYYCARRDLRGYFDVWGTGTTVTVSS
VL: DIVLTQSPATLSVTPGDRVSLSCRASQSISNYLHWYQQKSHESPRLLIKYASLSISGIPSRFSGSGSGTDFTLSINSVETEDFGVYFCQQSNSWPLTFGAGTKLELK
notes: as for B1
B3: F3.113.16 (antibody, human IgG1, V domains shown)
VH: QVQLQQPGAELVKPGASVKLSCKASGYTFTNYWMQWVKQRPGQGLEWIGEIDPSDSYINYNQKFKGKATLTADTSSSTAYMQLSSLTYEDSAVYYCARPVTVPWYFDVWGTGTTVTVSS
VL: EIVLTQSPTTMAASPGEKITITCSATSSISSNYLHWYQQKPGFSPKLLIYRTSNLASGVPARFSGSGSGTSYSLTIGTMEAEDVATYYCQQGSAIPRIFTFGSGTKLEIK
notes: as for B1
B4: F3.121.4 (antibody, human IgG1, V domains shown)
VH: QVQLQQPGAELVVPGTSVKLSCKASGYTFTNYWMHWVKQRPGQGLEWIGEIDPSDNYANYNQEFQGKATLTVDKSSSTAYMQLSSLTSDDSAVYYCARHDGYFGALDYWGQGTSVTVSS
VL: B3 VL with T26S, L47F, G92A, A94S, I98M
notes: as for B1
B5: F3.133.14 (antibody, human IgG1, V domains shown)
VH: QVQLQQPGAELVMPGASVKLSCKASGYTFTNYWMHWVKQRPGQGLEWIGEIDPSDYYANYNQKFKGKATLTVDKSSSTAYMQLSSLTSEDSAVYYCARSHYYANSYNYWGQGTTLTVSS
VL: B3 VL with V3E, T26S, N32D, V59L, A94S, I95V, I98M, F99L, S103A, I109L
notes: as for B1
B6: F3.81.2 (antibody, human IgG1, V domains shown)
VH: QVQLQQPGAELVMPGASVKLSCKASAYTFTNYWMHWVKQRPGHGLEWIGEIDPSDSYTDYNQNFKAKATLTVDKSSSTAYMQLSSLTSEDSAVYYCARLMGRYFDVWGTGTTVTVSS
VL: DIVMTQSHKFMSTSVGDRVSITCKASQDVSAAVAWYQQKPGQSPKLLINSASYRYTGVPDRFTGSGSGTDFTFTISSVQAEDLAVYYCQQHYSTPLTFGAGTKLELR
notes: as for B1
B7: F3.126.15 (antibody, human IgG1, V domains shown)
VH: QVQLQQPGAELVMPGASVKLSCKASGYTFTSYWMHWVKQRPGQGLEWIGEIDPSDSYTTYNQNFKGKATLTVDISTSTAYIQLSNLTSEDSAVYYCARLTGNYIHYWGQGTTLTVSS
VL: B6 VL with A31P, K39R, S43C, N49F, A51S, Y55S, T94L, R107K
notes: as for B1
B8: F3.83.9 (antibody, human IgG1, V domains shown)
VH: DVQLQESGPGLVKPSQSLSLTCSVTGYSITSGYYWNWIRQFPGNKLEWMGYISYDGGNNYNPSLKNRISITRDTSKNQFFLKLNSVTTEDTATYFCAREDYSNWYFDVWGTGTTVTVSS
VL: DIVLTQSPASLAVSLGQRATISCRASQSVSKSSYSYMHWYQQKPGQSPKLLIKYASILKSGVPARFSGSGSGTDFTLNIHPVEEEDTATYYCQHSWEIPWTFGGGTKLEIK
notes: as for B1
B9: F3.109.1 (antibody, human IgG1, V domains shown)
VH: EVQLQQSGAELVRPGSSVKMSCKTSGYTFTSYGINWVKQRPGQGLEWIGYIYIGNDYTEFNEKFKGKATLTSDTSSSTAYMQLSSLTSEDSAIYFCARFYSNSDPMDYWGHGTSVTVSS
VL: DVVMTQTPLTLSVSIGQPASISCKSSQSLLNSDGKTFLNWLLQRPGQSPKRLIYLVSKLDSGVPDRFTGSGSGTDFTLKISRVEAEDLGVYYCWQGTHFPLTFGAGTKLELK
notes: as for B1

Molecular target: T1, human CD19 on CHO-K1-human CD19 cells
Test: FACS on CHO-K1-human CD19 cells

Going from B1 to B2, the EC50 rises from 0.08 nM to 2.32 nM (29-fold). The first is the more potent here.

B3 and B4 are within 1.5-fold of each other in EC50: 0.39 nM for the first, 0.3 nM for the second.

Going from B5 to B6, the EC50 rises from 0.82 nM to 1.27 nM (1.5-fold). The first is the more potent here.

Compared with B7, B8 is 1.8-fold lower in EC50: 2.47 nM for the first, 1.34 nM for the second.

B9 showed an EC50 of 0.57 nM.

Compared with B1, B2 is higher in “Maximum mean fluorescence intensity” value: 14800 for the first, 50400 for the second.

Compared with B3, B4 is higher in “Maximum mean fluorescence intensity” value: 34100 for the first, 53700 for the second.

First: B5
Second: B6
The “Maximum mean fluorescence intensity” value of the first is higher: 63100 for the first, 59600 for the second.

First: B7
Second: B8
The “Maximum mean fluorescence intensity” value of the first is higher: 56700 for the first, 52200 for the second.

In the case of B9, the “Maximum mean fluorescence intensity” value is reported as 3980.

Molecular target: T2, cynomolgus monkey CD19 on peripheral …
Test: FACS, cynomolgus PBMC, CD20+ B cells
Procedure: The monkey peripheral blood mononuclear cells were extracted from fresh cynomolgus monkey peripheral blood (purchased from Shanghai Medicilon Inc.) according to the instructions of Ficoll-Paque Plus (purchased from GE Healthcae, catalog number: 171440-02). After the cell suspension was centrifuged, the cells were resuspended in PBS containing 1% BSA, and then the cells were counted. […] The mixture was incubated for 1 h at room temperature. After washing the cells three times, APC-labeled secondary antibody anti-human IgG Fc (catalog number: 409306, purchased from Biolegend) was added. After incubation at room temperature in the dark for 30 minutes, the cells were washed 5 times, gently resuspended with PBS containing 1% BSA, and detected and analyzed by FACS (FACS Canto™, purchased from BD Company), in which CD20 was used as a marker of B cells to gate the CD20-positive B cell population, the proportion of the chimeric antibody-labeled positive cells was analyzed, and the proportion of the chimeric antibody positive cell population to B cell population was calculated after treatments with the chimeric antibodies at the concentrations of 100 nM, 10 nM and 1 nM, respectively.

Compared with B1, B2 is higher in “Proportion of chimeric antibody positive cells to B cells (%) at 1 nM” value (“Proportion … (%) at 1 nM” below): 2% for the first, 40% for the second.

B3 and B4 are the same in “Proportion … (%) at 1 nM” value: 1% for the first, 1% for the second.

Going from B5 to B6, the “Proportion … (%) at 1 nM” value rises from 1% to 7%.

Going from B7 to B8, the “Proportion … (%) at 1 nM” value rises from 16% to 58%.

B9 was tested, and the “Proportion … (%) at 1 nM” value was 1%.

First: B1
Second: B2
The “Proportion of chimeric antibody positive cells to B cells (%) at 10 nM” value (from here on “Proportion … (%) at 10 nM”) of the first is lower: 2% for the first, 90% for the second.

Compared with B3, B4 is higher in “Proportion … (%) at 10 nM” value: 1% for the first, 2% for the second.

Going from B5 to B6, the “Proportion … (%) at 10 nM” value rises from 1% to 16%.

Compared with B7, B8 is higher in “Proportion … (%) at 10 nM” value: 27% for the first, 97% for the second.

In the case of B9, the “Proportion … (%) at 10 nM” value is reported as 1%.

First: B1
Second: B2
The “Proportion of chimeric antibody positive cells to B cells (%) at 100 nM” value (“Proportion … (%) at 100 nM” below) of the first is lower: 3% for the first, 99% for the second.

Compared with B3, B4 is lower in “Proportion … (%) at 100 nM” value: 6% for the first, 2% for the second.

Going from B5 to B6, the “Proportion … (%) at 100 nM” value rises from 7% to 38%.

Going from B7 to B8, the “Proportion … (%) at 100 nM” value rises from 49% to 99%.

For B9, the “Proportion … (%) at 100 nM” value was 1%.

Molecular target: T3, human CD19 on Raji cells
Test: FACS on Raji cells

Compared with B1, B2 is 6-fold higher in EC50: 0.56 nM for the first, 3.34 nM for the second.

Going from B3 to B4, the EC50 falls from 0.96 nM to 0.31 nM (3.1-fold).

B5 and B6 are within 1.5-fold of each other in EC50: 0.93 nM for the first, 0.68 nM for the second.

B7 and B8 are within 1.5-fold of each other in EC50: 1.18 nM for the first, 1.75 nM for the second.

B9 gave an EC50 of 0.44 nM.

Going from B1 to B2, the “Maximum mean fluorescence intensity” value rises from 26000 to 28700.

Going from B3 to B4, the “Maximum mean fluorescence intensity” value rises from 28800 to 32900.

Compared with B5, B6 is lower in “Maximum mean fluorescence intensity” value: 34400 for the first, 31300 for the second.

Compared with B7, B8 is lower in “Maximum mean fluorescence intensity” value: 30300 for the first, 29700 for the second.

For B9, the “Maximum mean fluorescence intensity” value was 29900.

Molecular target: T4, monkey CD19 on HEK293T-monkey CD19 cells (monkey)
T4 construct: whole, on cells
Test: FACS on HEK293T-monkey CD19 cells
Outline: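 Antibody binding was read as MFI by flow cytometry and EC50 was taken from curve fitting. Before that, cells at 2×10⁶ cells/ml in PBS with 2% (w/w) BSA were exposed to samples for 2 h on ice and washed. Parental HEK293T cells were tested the same way.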

First: B1
Second: B2
The “Maximum mean fluorescence intensity” value of the first is lower: 662 for the first, 210000 for the second.

First: B3
Second: B4
The “Maximum mean fluorescence intensity” value of the first is higher: 176 for the first, 80 for the second.

First: B5
Second: B6
The “Maximum mean fluorescence intensity” value of the first is lower: 138000 for the first, 153000 for the second.

First: B7
Second: B8
The “Maximum mean fluorescence intensity” value of the first is lower: 175000 for the first, 198000 for the second.

B9 was tested, and the “Maximum mean fluorescence intensity” value was 148.

Compared with B2, B5 is 1.6-fold higher in EC50: 1.56 nM for the first, 2.47 nM for the second. The first is the more potent here.

Compared with B6, B7 is 1.6-fold higher in EC50: 3.44 nM for the first, 5.57 nM for the second. The first is the more potent here.

B8 was tested, and the EC50 was 1.12 nM.
